Data published in PMC10512297, “The Penicillium chrysogenum tom1 Gene a Major Target of Transcription Factor MAT1-1-1 Encodes a Nuclear Protein Involved in Sporulation”.

Assays:
[1] = target: T1, GST-MAT1-1-1;GST-MAT1-2-1 (Penicillium chrysogenum;Penicillium …, UniProt B1GVB9;B1GVC0 1-342;1-303, |); assay: EMSA; 4 uM each protein; slower migrating complex; EMSA: 20 ul reaction, 20 min at room temperature, native 4% polyacrylamide gel, 120 V 2-3 h; buffer, salt and pH not given (Ramsak et al. 2021 protocol); conditions: protein: recombinant;recombinant; tags: N-terminal GST;N-terminal GST; label: 32P (probe); blunt
T1 sequence 1: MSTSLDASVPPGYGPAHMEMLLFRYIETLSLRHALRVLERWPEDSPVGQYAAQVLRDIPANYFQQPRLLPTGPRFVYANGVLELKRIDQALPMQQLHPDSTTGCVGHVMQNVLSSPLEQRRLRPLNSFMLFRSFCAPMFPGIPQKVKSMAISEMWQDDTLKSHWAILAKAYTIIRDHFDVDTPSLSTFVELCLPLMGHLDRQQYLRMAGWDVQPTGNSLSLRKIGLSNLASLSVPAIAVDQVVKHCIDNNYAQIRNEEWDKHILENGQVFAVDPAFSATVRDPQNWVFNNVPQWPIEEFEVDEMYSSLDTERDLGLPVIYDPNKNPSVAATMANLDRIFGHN
T1 sequence 2: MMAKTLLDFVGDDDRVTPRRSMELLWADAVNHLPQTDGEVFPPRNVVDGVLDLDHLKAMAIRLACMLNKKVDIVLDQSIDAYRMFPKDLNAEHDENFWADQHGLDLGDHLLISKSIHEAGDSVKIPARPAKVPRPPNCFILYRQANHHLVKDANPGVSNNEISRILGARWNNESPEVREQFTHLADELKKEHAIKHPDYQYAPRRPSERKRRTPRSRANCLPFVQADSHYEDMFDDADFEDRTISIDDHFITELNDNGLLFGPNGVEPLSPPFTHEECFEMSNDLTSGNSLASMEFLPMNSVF

[2] = target: T2, GST-MAT1-1-1 (Penicillium chrysogenum, UniProt B1GVB9 1-342); assay: EMSA; 2.5 uM protein; self-competition by unlabelled tom1-2; EMSA: 20 ul reaction, 20 min at room temperature, native 4% polyacrylamide gel, 120 V 2-3 h; buffer, salt and pH not given (Ramsak et al. 2021 protocol); conditions: protein: recombinant; tags: N-terminal GST; chain copies: 2; label: 32P (probe); blunt
T2 sequence: T1 sequence 1

[3] = target: T3, GST-MAT1-1-1;MAT1-2-1 (GST removed) (Penicillium chrysogenum;Penicillium …, UniProt B1GVB9;B1GVC0 1-342;1-303, |); assay: EMSA; 4 uM each protein; complex faster than with GST-MAT1-2-1; EMSA: 20 ul reaction, 20 min at room temperature, native 4% polyacrylamide gel, 120 V 2-3 h; buffer, salt and pH not given (Ramsak et al. 2021 protocol); conditions: protein: recombinant;recombinant; tags: N-terminal GST;none (GST removed by TEV protease); label: 32P (probe); blunt
T3 sequence 1: T1 sequence 1
T3 sequence 2: T1 sequence 2

[4] = target: T4, GST-MAT1-2-1 (Penicillium chrysogenum PC3, UniProt B1GVC0 1-303); assay: EMSA; 7 uM protein; more protein needed than for GST-MAT1-1-1; self-competition by unlabelled tom1-2; EMSA: 20 ul reaction, 20 min at room temperature, native 4% polyacrylamide gel, 120 V 2-3 h; buffer, salt and pH not given (Ramsak et al. 2021 protocol); conditions: protein: recombinant; tags: N-terminal GST; label: 32P (probe); blunt
T4 sequence: T1 sequence 2

Measured: binding result

B1: tom1-2 (dsDNA)
DNA 1: TCACGTGATCTCTATTGAGAACAATAGAA
DNA 2: TTCTATTGTTCTCAATAGAGATCACGTGA
binds: all assays above
